Measured values: patent US20250250357A1 (NANJING ZAIMING PHARMACEUTICAL, published 2025)
Positions count from the first letter of the chain named.

T1: human MSLN-R1-his protein (human, UniProt Q13421 296-390)
T1 construct: Region 1 of human mesothelin, made in HEK293E cells, His-tagged; also called human MSLN-R1 protein; hMSLN-R1-his; not shown: His tag
T1 chain: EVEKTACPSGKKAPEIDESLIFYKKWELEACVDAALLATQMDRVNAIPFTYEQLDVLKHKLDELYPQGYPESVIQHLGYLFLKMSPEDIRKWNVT

B1: S009-F8-24.14 (antibody, human IgG1, kappa, V domains shown)
VH: EFQLQQSGPELVKPGASVKISCKASGYSFTDYNMNWVKLSNGKSLEWIGVIIPNYGTSSYNQKFKGKATLTVDQSSSTAYMQLNSLTSEDSAVYYCARWDNYYGSSLDYWGQGTTLTVSS
VL: DIVMTQSQKFMSTTVGDRVSITCKASQNVGTAVAWYQQKPGQSPKLLIYSASNRYTGVPDRFTGSGSGTDFILTISNMQSEDLADYFCQQYSSYPLTFGAGTKLELKR
B2: S009-F8-27.1 (antibody, human IgG1, kappa, V domains shown)
VH: EVQLVESGGGLVKPGGSLKLSCAASGFTFSSYAMSWVRQTPEKRLEWVATISDGGNYTYYPDNVKGRFTISRDNAKNNLYLQMSHLKSEDTAMYYCAGDRGYPYAMDSWGQGTSVTVSS
VL: NIMMTQSPSSLAVSAGEKVTMSCKSSQSVLYSSNQKNYLAWYQQKPGQSPKLLIYWASTRESGVPDRFTGSGSGTDFTLTISNVHAEDLAVYYCHQYLSSLTFGAGTKLELKR
B3: S009-F8-28.23 (antibody, human IgG1, kappa, V domains shown)
VH: B2 VH with G10D, N56S, K65E, P103S, M106L, S108Y
VL: B2 VL with N83S, H85Q
B4: S009-F8-29.1 (antibody, human IgG1, kappa, V domains shown)
VH: QVQLQQSGAELARPGASVKMSCKASGYTFISYTMHWVKQRPGQGLEWIGYINPSSGYTKYNQKFKDKATLTADKSSSTAYMQLNSLTSEDSAVYYCARYYSNPDYYAMDYWGQGTSVTVSS
VL: QIVLTQSPAIMSASPGEKVTITCSASSSVSYMHWFQQKPGTSPKLWIYSTSNLASGVPARFSGSGSGTSYSLTISRMEAEDAATYYCQQRSSYPLTFGGGTKLELKR
B5: S009-F8-31.22 (antibody, human IgG1, kappa, V domains shown)
VH: EVQLVESGGDLVKPGGSLKLSCAASGFTFSTYGMSWVRQTPDKRLEWVATISSGGSYTYYPDSLKGRFTISRDNAKNTLYLQMSSLKSEDTAMYYCARHEGYYYGKDYWGQGTTLTVSS
VL: DIVLTQSPATLSVTPGDSVSLSCRASHSISNNLHWYQQKSHESPRLLIKYASQSISGIPSKFSGSGSGTDFTLSINSVETEDFGMYFCQQTNSWPLTFGAGTKLELKR
B6: S009-F8-32.3 (antibody, human IgG1, kappa, V domains shown)
VH: QVQLKESGPGLVAPSQSLSITCTVSGFSLSSYAISWVRQPPGKGLEWLGVIWTGGGTNYNSALKSRLSISKDNSKSQVFLKMNSLQTDDTARFYCARNNYGRLDYAMDYWGQGTSVTVSS
VL: DVVMTQTPLSLPVSLGDQASISCRSSQSLVHGNGNTYLHWYLQKPGQSPKLLIYKVSNRFSGVPDRFSGSGSGTDFTLKISRVETEDLGVYFCSQSTHVPFTFGSGTKLEIKR

Experiments:
[1] = molecular target: T1, human MSLN-R1-his protein; assay: ELISA on coated MSLN-R1; no antibody (blank)
[2] = molecular target: T1, human MSLN-R1-his protein; assay: ELISA on coated MSLN-R1; antibody 10 nM
Experimental: (§1) The plate was sealed with a plastic film and incubated at 4° C. overnight. The next day, the plate was washed twice with PBST, and a blocking buffer [PBS+2% (w/w) BSA] was added for blocking at room temperature for 2 h. The blocking buffer was discarded, and a chimeric antibody or negative control antibody serially diluted from 100 nM was added at 50 μL/well. After incubation at 37° C. for 2 h, the plate was washed 3 times with PBST. […] After incubation at 37° C. for 2 h, the plate was washed 5 times with PBST. A TMB substrate was added at 50 μL/well for incubation at room temperature for 5-10 min, and then a stop solution (1.0 N HCl) was added at 50 μL/well.

[3] = molecular target: T2, human MSLN-R2-his protein (human, UniProt Q13421 391-486); assay: ELISA on coated MSLN-R2; antibody 0.001 nM
T2 construct: Region 2 of human mesothelin, made in HEK293E cells, His-tagged; also called human MSLN-R2 protein; hMSLN-R2-his; not shown: His tag
T2 sequence (Q13421 other isoform, or with tags, fused parts or gaps): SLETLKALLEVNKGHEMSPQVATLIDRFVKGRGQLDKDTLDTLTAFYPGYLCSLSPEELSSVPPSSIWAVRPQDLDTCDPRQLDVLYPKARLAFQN

[4] = molecular target: T3, human MSLN-R3-his protein (human, UniProt Q13421 487-598); assay: ELISA on coated MSLN-R3; antibody 100 nM
T3 construct: Region 3 of human mesothelin, made in HEK293E cells, His-tagged; also called human MSLN-R3 protein; hMSLN-R3-his; not shown: His tag
T3 sequence (Q13421 495-606): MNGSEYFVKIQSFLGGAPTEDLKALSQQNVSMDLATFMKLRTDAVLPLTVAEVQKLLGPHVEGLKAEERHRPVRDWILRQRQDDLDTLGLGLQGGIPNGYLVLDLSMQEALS

[5] = molecular target: T2, human MSLN-R2-his protein; assay: ELISA on coated MSLN-R2; antibody 100 nM
[6] = molecular target: T1, human MSLN-R1-his protein; assay: ELISA on coated MSLN-R1; antibody 0.1 nM
Experimental: as §1

[7] = molecular target: T2, human MSLN-R2-his protein; assay: ELISA on coated MSLN-R2; antibody 0.01 nM
Experimental: as §1

[8] = molecular target: T3, human MSLN-R3-his protein; assay: ELISA on coated MSLN-R3; antibody 0.1 nM
Experimental: as §1

[9] = molecular target: T2, human MSLN-R2-his protein; assay: ELISA on coated MSLN-R2; no antibody (blank)
[10] = molecular target: T2, human MSLN-R2-his protein; assay: ELISA on coated MSLN-R2; antibody 0.1 nM
Experimental: as §1

[11] = molecular target: T2, human MSLN-R2-his protein; assay: ELISA on coated MSLN-R2; antibody 0.0001 nM
Experimental: as §1

[12] = molecular target: T3, human MSLN-R3-his protein; assay: ELISA on coated MSLN-R3; antibody 10 nM
[13] = molecular target: T1, human MSLN-R1-his protein; assay: ELISA on coated MSLN-R1; antibody 0.0001 nM
Experimental: as §1

[14] = molecular target: T1, human MSLN-R1-his protein; assay: ELISA on coated MSLN-R1; antibody 100 nM
Experimental: as §1

[15] = molecular target: T1, human MSLN-R1-his protein; assay: ELISA on coated MSLN-R1; antibody 1 nM
Experimental: as §1

[16] = molecular target: T3, human MSLN-R3-his protein; assay: ELISA on coated MSLN-R3; antibody 1 nM
Experimental: as §1

[17] = molecular target: T1, human MSLN-R1-his protein; assay: ELISA on coated MSLN-R1; antibody 0.01 nM
Experimental: as §1

[18] = molecular target: T3, human MSLN-R3-his protein; assay: ELISA on coated MSLN-R3; antibody 0.0001 nM
Experimental: as §1

[19] = molecular target: T2, human MSLN-R2-his protein; assay: ELISA on coated MSLN-R2; antibody 1 nM
[20] = molecular target: T3, human MSLN-R3-his protein; assay: ELISA on coated MSLN-R3; antibody 0.001 nM
Experimental: as §1

[21] = molecular target: T2, human MSLN-R2-his protein; assay: ELISA on coated MSLN-R2; antibody 10 nM
Experimental: as §1

[22] = molecular target: T1, human MSLN-R1-his protein; assay: ELISA on coated MSLN-R1; antibody 0.001 nM
[23] = molecular target: T3, human MSLN-R3-his protein; assay: ELISA on coated MSLN-R3; antibody 0.01 nM
Experimental: as §1

[24] = molecular target: T3, human MSLN-R3-his protein; assay: ELISA on coated MSLN-R3; no antibody (blank)

| Binder | OD450 [1] | OD450 [2] | OD450 [3] | OD450 [4] | OD450 [5] | OD450 [6] | OD450 [7] | OD450 [8] | OD450 [9] | OD450 [10] | OD450 [11] | OD450 [12] | OD450 [13] | OD450 [14] | OD450 [15] | OD450 [16] | OD450 [17] | OD450 [18] | OD450 [19] | OD450 [20] | also measured |
| --- | --- | --- | --- | --- | --- | --- | --- | --- | --- | --- | --- | --- | --- | --- | --- | --- | --- | --- | --- | --- | --- |
| B1 | 0.04 OD450 | 2.24 OD450 | 0.04 OD450 | 0.06 OD450 | 0.05 OD450 | 0.64 OD450 | 0.04 OD450 | 0.04 OD450 | 0.04 OD450 | 0.04 OD450 | 0.04 OD450 | 0.05 OD450 | 0.05 OD450 | 2.34 OD450 | 1.63 OD450 | 0.04 OD450 | 0.13 OD450 | 0.04 OD450 | 0.04 OD450 | 0.04 OD450 | OD450 [21]: 0.04 OD450; OD450 [22]: 0.07 OD450; OD450 [23]: 0.04 OD450; OD450 [24]: 0.04 OD450 |
| B2 | 0.05 OD450 | 0.08 OD450 | 0.05 OD450 | 0.06 OD450 | 0.05 OD450 | 0.05 OD450 | 0.04 OD450 | 0.07 OD450 | 0.05 OD450 | 0.04 OD450 | 0.04 OD450 | 0.05 OD450 | 0.04 OD450 | 0.35 OD450 | 0.05 OD450 | 0.04 OD450 | 0.04 OD450 | 0.04 OD450 | 0.05 OD450 | 0.05 OD450 | OD450 [21]: 0.05 OD450; OD450 [22]: 0.04 OD450; OD450 [23]: 0.04 OD450; OD450 [24]: 0.05 OD450 |
| B3 | 0.04 OD450 | 0.04 OD450 | 0.04 OD450 | 0.07 OD450 | 0.05 OD450 | 0.04 OD450 | 0.04 OD450 | 0.04 OD450 | 0.04 OD450 | 0.04 OD450 | 0.04 OD450 | 0.05 OD450 | 0.04 OD450 | 0.05 OD450 | 0.04 OD450 | 0.04 OD450 | 0.04 OD450 | 0.04 OD450 | 0.04 OD450 | 0.04 OD450 | OD450 [21]: 0.04 OD450; OD450 [22]: 0.05 OD450; OD450 [23]: 0.07 OD450; OD450 [24]: 0.04 OD450 |
| B4 | 0.04 OD450 | 0.04 OD450 | 0.04 OD450 | 0.1 OD450 | 0.06 OD450 | 0.04 OD450 | 0.04 OD450 | 0.04 OD450 | 0.04 OD450 | 0.04 OD450 | 0.05 OD450 | 0.06 OD450 | 0.04 OD450 | 0.05 OD450 | 0.04 OD450 | 0.06 OD450 | 0.04 OD450 | 0.06 OD450 | 0.04 OD450 | 0.15 OD450 | OD450 [21]: 0.04 OD450; OD450 [22]: 0.04 OD450; OD450 [23]: 0.04 OD450; OD450 [24]: 0.04 OD450 |
| B5 | 0.05 OD450 | 2.17 OD450 | 0.04 OD450 | 0.13 OD450 | 0.08 OD450 | 1.95 OD450 | 0.04 OD450 | 0.04 OD450 | 0.05 OD450 | 0.05 OD450 | 0.05 OD450 | 0.07 OD450 | 0.08 OD450 | 2.12 OD450 | 2.05 OD450 | 0.05 OD450 | 0.8 OD450 | 0.04 OD450 | 0.04 OD450 | 0.04 OD450 | OD450 [21]: 0.05 OD450; OD450 [22]: 0.19 OD450; OD450 [23]: 0.04 OD450; OD450 [24]: 0.05 OD450 |
| B6 | 0.04 OD450 | 2.79 OD450 | 0.04 OD450 | 0.07 OD450 | 0.07 OD450 | 1.64 OD450 | 0.04 OD450 | 0.04 OD450 | 0.04 OD450 | 0.04 OD450 | 0.04 OD450 | 0.04 OD450 | 0.06 OD450 | 2.81 OD450 | 2.6 OD450 | 0.04 OD450 | 0.42 OD450 | 0.04 OD450 | 0.04 OD450 | 0.04 OD450 | OD450 [21]: 0.05 OD450; OD450 [22]: 0.11 OD450; OD450 [23]: 0.04 OD450; OD450 [24]: 0.04 OD450 |
